Assay results from article PMC5499601 (Nucleic Acids Research, 2017).
Changes are numbered by the printed parent chain. Numbers in names are those of the source.

B1: wild-type Bacillus subtilis Spo0J (BsSpo0J) (natural protein)
chain: MAKGLGKGINALFNQVDLSEETVEEIKIADLRPNPYQPRKHFDDEALAELKESVLQHGILQPLIVRKSLKGYDIVAGERRFRAAKLAGLDTVPAIVRELSEALMREIALLENLQREDLSPLEEAQAYDSLLKHLDLTQEQLAKRLGKSRPHIANHLRLLTLPENIQQLIAEGTLSMGHGRTLLGLKNKNKLEPLVQKVIAEQLNVRQLEQLIQQLNQNVPRETKKKEPVKDAVLKERESYLQNYFGTTVNIKRQKKKGKIEIEFFSNEDLDRILELLSERES
B2: BsSpo0J P62A (natural protein)
chain: B1 chain with P62A
B3: BsSpo0J R79A (natural protein)
chain: B1 chain with R79A
B4: BsSpo0J R105E (natural protein)
chain: B1 chain with R105E
B5: BsSpo0J G77S (natural protein)
chain: B1 chain with G77S

Target: the molecule itself
Assay: SEC

Stoichiometry N, 2:
B1
B2
B3
B4
B5
